Where two headings read alike, the source gives them in different places.

Data set [1] deals with the molecule itself. Description: SEC-MALS.
Data set [2] concerns the molecule itself. Description: SEC-MALS. The source holds these as a separate data set.

B1: ATL3 22-442 WT (soluble domain: GTPase domain, linker and 3HB middle domain) (domain or fragment, human, UniProt Q6DD88 22-442, looked up)
chain: SKPGPVQVVLVQKDQHSFELDEKALASILLQDHIRDLDVVVVSVAGAFRKGKSFILDFMLRYLYSQKESGHSNWLGDPEEPLTGFSWRGGSDPETTGIQIWSEVFTVEKPGGKKVAVVLMDTQGAFDSQSTVKDCATIFALSTMTSSVQIYNLSQNIQEDDLQQLQLFTEYGRLAMDEIFQKPFQTLMFLVRDWSFPYEYSYGLQGGMAFLDKRLQVKEHQHEEIQNVRNHIHSCFSDVTCFLLPHPGLQVATSPDFDGKLKDIAGEFKEQLQALIPYVLNPSKLMEKEINGSKVTCRGLLEYFKAYIKIYQGEDLPHPKSMLQATAEANNLAAAASAKDIYYNNMEEVCGGEKPYLSPDILEEKHCEFKQLALDHFKKTKKMGGKDFSFRYQQELEEEIKELYENFCKHNGSKNVFSTFR
Take B1: the “stoichiometry N” value in “SEC-MALS [1]” was determined as 2.

B2: ATL3 22-442 Y192C (domain or fragment, human, UniProt Q6DD88 22-442, looked up)
chain: SKPGPVQVVLVQKDQHSFELDEKALASILLQDHIRDLDVVVVSVAGAFRKGKSFILDFMLRYLYSQKESGHSNWLGDPEEPLTGFSWRGGSDPETTGIQIWSEVFTVEKPGGKKVAVVLMDTQGAFDSQSTVKDCATIFALSTMTSSVQIYNLSQNIQEDDLQQLQLFTECGRLAMDEIFQKPFQTLMFLVRDWSFPYEYSYGLQGGMAFLDKRLQVKEHQHEEIQNVRNHIHSCFSDVTCFLLPHPGLQVATSPDFDGKLKDIAGEFKEQLQALIPYVLNPSKLMEKEINGSKVTCRGLLEYFKAYIKIYQGEDLPHPKSMLQATAEANNLAAAASAKDIYYNNMEEVCGGEKPYLSPDILEEKHCEFKQLALDHFKKTKKMGGKDFSFRYQQELEEEIKELYENFCKHNGSKNVFSTFR
As to B2, the “stoichiometry N” value in the data set “SEC-MALS [1]” came to 2.

B3: ATL3 22-442 P338R (domain or fragment, human, UniProt Q6DD88 22-442, looked up)
chain: SKPGPVQVVLVQKDQHSFELDEKALASILLQDHIRDLDVVVVSVAGAFRKGKSFILDFMLRYLYSQKESGHSNWLGDPEEPLTGFSWRGGSDPETTGIQIWSEVFTVEKPGGKKVAVVLMDTQGAFDSQSTVKDCATIFALSTMTSSVQIYNLSQNIQEDDLQQLQLFTEYGRLAMDEIFQKPFQTLMFLVRDWSFPYEYSYGLQGGMAFLDKRLQVKEHQHEEIQNVRNHIHSCFSDVTCFLLPHPGLQVATSPDFDGKLKDIAGEFKEQLQALIPYVLNPSKLMEKEINGSKVTCRGLLEYFKAYIKIYQGEDLRHPKSMLQATAEANNLAAAASAKDIYYNNMEEVCGGEKPYLSPDILEEKHCEFKQLALDHFKKTKKMGGKDFSFRYQQELEEEIKELYENFCKHNGSKNVFSTFR
As to B3, the “stoichiometry N” value in “SEC-MALS [2]” was 2.
